Measurements taken from patent US20100035814A1 (Novo Nordisk, published 2010).
Positions count from the first letter of the chain named. Names and notes keep the numbering of the source. Like-named read-outs stand apart in the source and are kept apart here.

Columns and labels:
[1] = biological target: T1, hPRLR on stably transfected BaF/3 cells (human, UniProt P16471 25-622); test: cell-based or functional assay
T1 sequence (looked up): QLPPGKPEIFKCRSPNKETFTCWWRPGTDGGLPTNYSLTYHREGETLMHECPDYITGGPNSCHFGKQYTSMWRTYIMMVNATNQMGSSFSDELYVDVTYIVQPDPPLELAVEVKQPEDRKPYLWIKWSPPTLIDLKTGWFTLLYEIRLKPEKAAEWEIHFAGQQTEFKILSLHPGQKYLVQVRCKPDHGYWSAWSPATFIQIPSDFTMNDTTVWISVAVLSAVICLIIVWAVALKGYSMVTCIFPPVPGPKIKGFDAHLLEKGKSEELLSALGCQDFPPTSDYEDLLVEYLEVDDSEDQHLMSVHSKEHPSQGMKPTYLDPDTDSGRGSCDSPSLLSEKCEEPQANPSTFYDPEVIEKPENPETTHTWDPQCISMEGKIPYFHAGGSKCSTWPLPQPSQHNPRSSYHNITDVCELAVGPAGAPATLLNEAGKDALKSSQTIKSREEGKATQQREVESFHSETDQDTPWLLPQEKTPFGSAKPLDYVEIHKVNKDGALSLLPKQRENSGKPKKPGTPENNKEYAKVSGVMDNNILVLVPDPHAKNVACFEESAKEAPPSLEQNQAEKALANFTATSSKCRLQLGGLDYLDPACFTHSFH

[2] = biological target: T2, soluble form of the PRL receptor (UniProt P16471 25-234, limits assumed); test: SPR (Biacore 3000), soluble PRL receptor amine-coupled to CM5 chip, prolactin molecule injected at 500 nM
T2 construct: extracellular domain; It gives no residues, tag or species; also called prolactin receptor; immobilized receptor
T2 sequence (looked up): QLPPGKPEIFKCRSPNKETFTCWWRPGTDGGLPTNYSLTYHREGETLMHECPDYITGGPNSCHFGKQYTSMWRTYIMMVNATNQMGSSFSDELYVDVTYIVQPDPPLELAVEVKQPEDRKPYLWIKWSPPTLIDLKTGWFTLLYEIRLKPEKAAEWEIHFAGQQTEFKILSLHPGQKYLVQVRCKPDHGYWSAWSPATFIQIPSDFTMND
Procedure: The soluble form of the PRL receptor (25 μg/ml in 10 mM sodium acetate, pH 3.0) was injected into a Biacore 3000 instrument at a flow rate of 5 μl/min and coupled to a CM5 sensor chip by amine coupling chemistry. […] Data evaluation was performed in BiaEvaluation 4.1. Regeneration was accomplished with 4.5 M MgCl₂ between runs.
Using the assay as described in Example 8, the binding of N-terminally pegylated versions of the prolactin antagonist PRL(12-199) Q12S G129R to the prolactin receptor was determined.

[3] = biological target: T1, hPRLR on stably transfected BaF/3 cells; test: cell-based or functional assay; remark: listed apart in the source

B1: Ser PRL S33A Q73L G129R K190R (ligand)
chain: SLPICPGGAARCQVTLRDLFDRAVVLSHYIHNLASEMFSEFDKRYTHGRGFITKAINSCHTSSLATPEDKEQALQMNQKDFLSLIVSILRSWNEPLYHLVTEVRGMQEAPEAILSKAVEIEEQTKRLLERMELIVSQVHPETKENEIYPVWSGLPSLQMADEESRLSAYYNLLHCLRRDSHKIDNYLKLLRCRIIHNNNC
In the case of B1, the “EC50 of PRL in the presence of 1 µM Ser PRL S33A Q73L G129R K190R, proliferation of BaF/3 cells stably transfected with hPRLR” value [1] is reported as 531 nM.

B2: N^alpha1-(3-(20 kDa-mPEGyl)propyl) Ser PRL S33A Q73L G129R K190R (ligand)
chain: B1 chain
modifications: N-terminal alpha-amino group (N^alpha1, of the added serine) alkylated with 3-(20 kDa mPEGyl)propyl by reductive amination
In the case of B2, the “EC50 of PRL in the presence of 1 µM Ser PRL S33A Q73L G129R K190R PEG20k, proliferation of BaF/3 cells stably transfected with hPRLR” value [1] is reported as 19 nM.

B3: PRL wildtype (ligand)
chain: LPICPGGAARCQVTLRDLFDRAVVLSHYIHNLSSEMFSEFDKRYTHGRGFITKAINSCHTSSLATPEDKEQAQQMNQKDFLSLIVSILRSWNEPLYHLVTEVRGMQEAPEAILSKAVEIEEQTKRLLEGMELIVSQVHPETKENEIYPVWSGLPSLQMADEESRLSAYYNLLHCLRRDSHKIDNYLKLLKCRIIHNNNC
notes: also called wtPRL; human prolactin
With B3 the Kd [2] was 32 nM, the “EC50, proliferation (AlamarBlue) of BaF/3 cells stably transfected with hPRLR” value [3] was 0.15 nM and the “EC50, proliferation (AlamarBlue) of BaF/3 cells stably transfected with hPRLR” value [1] was 0.15 nM.

B4: PRL S61A G129R (ligand)
chain: B3 chain with S61A, G129R
B4 was tested, and the “EC50 of PRL in the presence of 1 µM PRL S61A G129R, proliferation of BaF/3 cells stably transfected with hPRLR” value [3] was 116 nM.

B5: N^alpha1-(3-(20 kDa-mPEGyl)propyl)PRL S61 G129R ("PRL S61A G129R PEG20k") (ligand)
chain: B3 chain with S61A, G129R
modifications: N-terminal alpha-amino group (N^alpha1) alkylated with 3-(20 kDa mPEGyl)propyl by reductive amination
With B5 the Kd [2] was 71 nM and the “EC50 of PRL in the presence of 1 µM PRL S61A G129R PEG20k, proliferation of BaF/3 cells stably transfected with hPRLR” value [3] was 4.6 nM.

B6: N^alpha,13((4-(2-Methyl-4-(10 kDa mPEGyloxy)butanoylamino)butoxy)imino)acetyl G129R-PRL(13-199) (E2) (ligand)
chain: VTLRDLFDRAVVLSHYIHNLSSEMFSEFDKRYTHGRGFITKAINSCHTSSLATPEDKEQAQQMNQKDFLSLIVSILRSWNEPLYHLVTEVRGMQEAPEAILSKAVEIEEQTKRLLERMELIVSQVHPETKENEIYPVWSGLPSLQMADEESRLSAYYNLLHCLRRDSHKIDNYLKLLKCRIIHNNNC
modifications: alpha-amino group of residue 13 carries ((4-(2-methyl-4-(10 kDa mPEGyloxy)butanoylamino)butoxy)imino)acetyl (oxime formed on the periodate-oxidised N-terminal serine of N^alpha,13-seryl G129R-PRL(13-199))
notes: also called N-terminally pegylated PRL(12-199) Q12S G129R (10 kDa PEG)
Binder B6 has a Kd [2] of 55 nM.

B7: N^alpha,13((4-(4-(20 kDa mPEGyloxy)butanoylamino)butoxy)imino)acetyl G129R-PRL(13-199) (E3) (ligand)
chain: B6 chain
modifications: alpha-amino group of residue 13 carries ((4-(4-(20 kDa mPEGyloxy)butanoylamino)butoxy)imino)acetyl (oxime formed on the periodate-oxidised N-terminal serine of N^alpha,13-seryl G129R-PRL(13-199))
notes: also called N-terminally pegylated PRL(12-199) Q12S G129R (20 kDa PEG)
B7 gave a Kd [2] of 70 nM.

B8: N^alpha,13((4-(3-(5 kDa mPEGyloxy)propionylamino)butoxy)imino)acetyl G129R-PRL(13-199) (E4) (ligand)
chain: B6 chain
modifications: alpha-amino group of residue 13 carries ((4-(3-(5 kDa mPEGyloxy)propionylamino)butoxy)imino)acetyl (oxime formed on the periodate-oxidised N-terminal serine of N^alpha,13-seryl G129R-PRL(13-199))
notes: also called N-terminally pegylated PRL(12-199) Q12S G129R (5 kDa PEG)
In the case of B8, the Kd [2] is reported as 42 nM.

B9: PRL(12-199) Q12S G129R (ligand)
chain: SVTLRDLFDRAVVLSHYIHNLSSEMFSEFDKRYTHGRGFITKAINSCHTSSLATPEDKEQAQQMNQKDFLSLIVSILRSWNEPLYHLVTEVRGMQEAPEAILSKAVEIEEQTKRLLERMELIVSQVHPETKENEIYPVWSGLPSLQMADEESRLSAYYNLLHCLRRDSHKIDNYLKLLKCRIIHNNNC
In the case of B9, the “EC50 of PRL in the presence of 1 µM PRL(12-199) Q12S G129R, proliferation of BaF/3 cells stably transfected with hPRLR” value [1] is reported as 40 nM.
